From the supplement of paper PMC9112550, “Optimization of the antimicrobial peptide Bac7 by deep mutational scanning” (BMC Biology, 2022)

System: Escherichia coli TOP10
Assay: shrunken log2 fold change of peptide-encoding DNA abundance (4.5 h post-induction vs induction); higher = less antimicrobial activity (less host growth inhibition)
Conditions: time post-induction: 4.5 h; library: site-saturation at positions 5, 18, 19, 20
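Also: peptides expressed intracellularly from a pBAD plasmid library in pooled LB shake-flask culture, induced with 0.3% L-arabinose, DNA abundance read by NGS, three biological replicates, DESeq2 with apeglm shrinkage.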

How did the “shrunken log2 fold change” value turn out when RRIRPRPPRLPRPRPRPGPPPRP was run?
The value was 0.366.

For RRIRPRPPRLPRPRPRPGPVPRP, which “shrunken log2 fold change” value is on record?
Its value is 0.258.

RRIRPRPPRLPRPRPRPGPWPRP was tested. Which “shrunken log2 fold change” value did it give?
The value was 0.0326.

RRIRPRPPRLPRPRPRPGQDPRP was tested. Which “shrunken log2 fold change” value did it give?
Its value is -0.0902.

With RRIRPRPPRLPRPRPRPGQEPRP as the sequence, how does the “shrunken log2 fold change” value read?
The value was 0.031.

With RRIRPRPPRLPRPRPRPGQIPRP as the sequence, how does the “shrunken log2 fold change” value read?
The value was -0.0497.

With RRIRPRPPRLPRPRPRPGQKPRP as the sequence, how does the “shrunken log2 fold change” value read?
Its value is -0.00227.

RRIRPRPPRLPRPRPRPGQRPRP was tested. Which “shrunken log2 fold change” value did it give?
Its value is 0.44.

For RRIRPRPPRLPRPRPRPGQSPRP, which “shrunken log2 fold change” value is on record?
Its value is 0.421.

RRIRPRPPRLPRPRPRPGRCPRP was tested. Which “shrunken log2 fold change” value did it give?
Its value is 0.442.

With RRIRPRPPRLPRPRPRPGRQPRP as the sequence, how does the “shrunken log2 fold change” value read?
Its value is 0.742.

Which “shrunken log2 fold change” value does the source give for RRIRPRPPRLPRPRPRPGTDPRP here?
The value was 0.119.

RRIRPRPPRLPRPRPRPGVGPRP was tested. Which “shrunken log2 fold change” value did it give?
The value was 0.53.

For RRIRPRPPRLPRPRPRPGVTPRP, which “shrunken log2 fold change” value is on record?
The value was -0.227.

With RRIRPRPPRLPRPRPRPGWGPRP as the sequence, how does the “shrunken log2 fold change” value read?
The value was 0.458.

How did the “shrunken log2 fold change” value turn out when RRIRPRPPRLPRPRPRPGWPPRP was run?
Its value is 0.667.

For RRIRPRPPRLPRPRPRPGWSPRP, which “shrunken log2 fold change” value is on record?
Its value is 0.0867.

RRIRPRPPRLPRPRPRPGWTPRP was tested. Which “shrunken log2 fold change” value did it give?
The value was 0.235.

Which “shrunken log2 fold change” value does the source give for RRIRPRPPRLPRPRPRPGYRPRP here?
The value was -0.051.

RRIRPRPPRLPRPRPRPGYTPRP was tested. Which “shrunken log2 fold change” value did it give?
The value was -0.0764.

Which “shrunken log2 fold change” value does the source give for RRIRPRPPRLPRPRPRPHDEPRP here?
Its value is -0.0869.

Which “shrunken log2 fold change” value does the source give for RRIRPRPPRLPRPRPRPHEFPRP here?
The value was 0.253.

Which “shrunken log2 fold change” value does the source give for RRIRPRPPRLPRPRPRPHEMPRP here?
The value was -0.142.

RRIRPRPPRLPRPRPRPHERPRP was tested. Which “shrunken log2 fold change” value did it give?
Its value is 0.198.

Which “shrunken log2 fold change” value does the source give for RRIRPRPPRLPRPRPRPHESPRP here?
The value was 0.0891.

For RRIRPRPPRLPRPRPRPHFEPRP, which “shrunken log2 fold change” value is on record?
The value was 0.0605.

For RRIRPRPPRLPRPRPRPHFTPRP, which “shrunken log2 fold change” value is on record?
The value was -0.302.

For RRIRPRPPRLPRPRPRPHGHPRP, which “shrunken log2 fold change” value is on record?
Its value is 0.0412.

For RRIRPRPPRLPRPRPRPHGNPRP, which “shrunken log2 fold change” value is on record?
The value was -0.654.

With RRIRPRPPRLPRPRPRPHGRPRP as the sequence, how does the “shrunken log2 fold change” value read?
Its value is -0.0223.

RRIRPRPPRLPRPRPRPHKHPRP was tested. Which “shrunken log2 fold change” value did it give?
The value was -0.268.

RRIRPRPPRLPRPRPRPHNPPRP was tested. Which “shrunken log2 fold change” value did it give?
Its value is -0.0801.

With RRIRPRPPRLPRPRPRPHNYPRP as the sequence, how does the “shrunken log2 fold change” value read?
Its value is -0.631.

Which “shrunken log2 fold change” value does the source give for RRIRPRPPRLPRPRPRPHSDPRP here?
Its value is 0.0137.

How did the “shrunken log2 fold change” value turn out when RRIRPRPPRLPRPRPRPHVEPRP was run?
The value was 0.107.

RRIRPRPPRLPRPRPRPHWDPRP was tested. Which “shrunken log2 fold change” value did it give?
Its value is -0.208.

Which “shrunken log2 fold change” value does the source give for RRIRPRPPRLPRPRPRPHWQPRP here?
Its value is 0.358.

How did the “shrunken log2 fold change” value turn out when RRIRPRPPRLPRPRPRPHYMPRP was run?
The value was -0.747.

With RRIRPRPPRLPRPRPRPHYNPRP as the sequence, how does the “shrunken log2 fold change” value read?
Its value is -0.769.

Which “shrunken log2 fold change” value does the source give for RRIRPRPPRLPRPRPRPIFHPRP here?
Its value is -0.0968.

With RRIRPRPPRLPRPRPRPIFRPRP as the sequence, how does the “shrunken log2 fold change” value read?
The value was -0.0135.

How did the “shrunken log2 fold change” value turn out when RRIRPRPPRLPRPRPRPIFSPRP was run?
Its value is 0.14.

With RRIRPRPPRLPRPRPRPIGLPRP as the sequence, how does the “shrunken log2 fold change” value read?
Its value is 0.155.

With RRIRPRPPRLPRPRPRPIGMPRP as the sequence, how does the “shrunken log2 fold change” value read?
The value was -0.232.

Which “shrunken log2 fold change” value does the source give for RRIRPRPPRLPRPRPRPIGNPRP here?
Its value is -0.0419.

With RRIRPRPPRLPRPRPRPIGRPRP as the sequence, how does the “shrunken log2 fold change” value read?
Its value is -0.0114.

For RRIRPRPPRLPRPRPRPIGTPRP, which “shrunken log2 fold change” value is on record?
The value was -0.39.

Which “shrunken log2 fold change” value does the source give for RRIRPRPPRLPRPRPRPIHVPRP here?
The value was -0.351.

Which “shrunken log2 fold change” value does the source give for RRIRPRPPRLPRPRPRPIIMPRP here?
The value was 0.195.

How did the “shrunken log2 fold change” value turn out when RRIRPRPPRLPRPRPRPIKCPRP was run?
The value was -0.358.

RRIRPRPPRLPRPRPRPIKGPRP was tested. Which “shrunken log2 fold change” value did it give?
Its value is 0.0468.

Which “shrunken log2 fold change” value does the source give for RRIRPRPPRLPRPRPRPIMEPRP here?
Its value is -0.159.

For RRIRPRPPRLPRPRPRPIMIPRP, which “shrunken log2 fold change” value is on record?
Its value is -0.169.

How did the “shrunken log2 fold change” value turn out when RRIRPRPPRLPRPRPRPIMRPRP was run?
The value was -0.0819.

For RRIRPRPPRLPRPRPRPIMTPRP, which “shrunken log2 fold change” value is on record?
The value was 0.0516.

How did the “shrunken log2 fold change” value turn out when RRIRPRPPRLPRPRPRPINKPRP was run?
The value was -0.641.

RRIRPRPPRLPRPRPRPIPLPRP was tested. Which “shrunken log2 fold change” value did it give?
Its value is -0.191.

RRIRPRPPRLPRPRPRPIPMPRP was tested. Which “shrunken log2 fold change” value did it give?
The value was -0.0493.

How did the “shrunken log2 fold change” value turn out when RRIRPRPPRLPRPRPRPIPPPRP was run?
The value was -0.0888.

For RRIRPRPPRLPRPRPRPIQNPRP, which “shrunken log2 fold change” value is on record?
Its value is -0.11.

How did the “shrunken log2 fold change” value turn out when RRIRPRPPRLPRPRPRPIQSPRP was run?
Its value is -0.083.

Which “shrunken log2 fold change” value does the source give for RRIRPRPPRLPRPRPRPIQTPRP here?
Its value is -0.0617.

Which “shrunken log2 fold change” value does the source give for RRIRPRPPRLPRPRPRPIQVPRP here?
Its value is 0.0596.

How did the “shrunken log2 fold change” value turn out when RRIRPRPPRLPRPRPRPISMPRP was run?
Its value is -0.0272.

RRIRPRPPRLPRPRPRPISYPRP was tested. Which “shrunken log2 fold change” value did it give?
Its value is -0.163.

With RRIRPRPPRLPRPRPRPITCPRP as the sequence, how does the “shrunken log2 fold change” value read?
The value was 0.102.

How did the “shrunken log2 fold change” value turn out when RRIRPRPPRLPRPRPRPITVPRP was run?
The value was -0.298.

For RRIRPRPPRLPRPRPRPIVYPRP, which “shrunken log2 fold change” value is on record?
The value was 0.175.

For RRIRPRPPRLPRPRPRPIWAPRP, which “shrunken log2 fold change” value is on record?
The value was 0.384.

For RRIRPRPPRLPRPRPRPIWLPRP, which “shrunken log2 fold change” value is on record?
Its value is -0.132.

With RRIRPRPPRLPRPRPRPIWTPRP as the sequence, how does the “shrunken log2 fold change” value read?
Its value is -0.262.

With RRIRPRPPRLPRPRPRPKASPRP as the sequence, how does the “shrunken log2 fold change” value read?
Its value is 0.105.

For RRIRPRPPRLPRPRPRPKCAPRP, which “shrunken log2 fold change” value is on record?
Its value is 0.0543.

With RRIRPRPPRLPRPRPRPKCKPRP as the sequence, how does the “shrunken log2 fold change” value read?
The value was -0.207.

RRIRPRPPRLPRPRPRPKCRPRP was tested. Which “shrunken log2 fold change” value did it give?
The value was 0.00849.
